The values below come from patent US20160130329A1 (UNIVERSITY OF CHICAGO, published 2016).

Experiment [1] concerns the target T1, H3K4me3 peptide (also: biotinylated, site not given here).
T1 peptide: ART[Lys(Me3)]QTARKSTGGYCD
Nature of the experiment: phage ELISA.

For experiment [2], the target named is T1, H3K4me3 peptide. Briefly: yeast display, flow cytometry [A]. (Flow cytometry measures light scatter and fluorescence of single cells or particles in a stream.)
Experiment [3] concerns the target T2, H3K27me3 peptide (trimethyl-lysine at K27 (histone H3 numbering); biotinylated through the GYCD tag).
T2 peptide: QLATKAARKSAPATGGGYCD
Nature of the experiment: yeast display, flow cytometry [A].

Experiment [4] addresses T3, H4K20me3 peptide (trimethyl-lysine at K20 (histone H4 numbering); biotinylated through the GYCD tag).
T3 peptide: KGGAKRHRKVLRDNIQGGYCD
Nature of the experiment: phage ELISA [B]. A general note: An ELISA detects its analyte on a solid surface through an enzyme-linked reagent.

Experiment [5] deals with T2, H3K27me3 peptide. Briefly: phage ELISA [B].
Experiment [6] has as its target T3, H4K20me3 peptide. Nature of the experiment: phage ELISA [A].
Experiment [7] has as its target T4, H3K36me3 peptide (K(me3) at H3 K36; K(biotin) near the C-terminus, as printed: SAPATGGVK-K(me3)-PHRYRPGG-K(biotin)-D).
T4 peptide: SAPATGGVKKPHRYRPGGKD
Nature of the experiment: yeast display, flow cytometry [B].

Experiment [8] deals with T2, H3K27me3 peptide. Briefly: yeast display, flow cytometry [B].
Experiment [9] concerns the target T4, H3K36me3 peptide. Briefly: phage ELISA.

Where no end group is shown, it is not given here. [ ]: non-standard residue; d: D form. Lys(Me3) = C[N+](C)(C)CCCC[C@H](N)C(=O)O

B1: 20F109 (scFv)
scFv: EVQLVETGGGVVQPGRSLRLSCTASGFTFRDYWMSWVRQAPGKGLEWVADINPDGITRYYIDAVKGRFTISRDNAKSSLYLQMNSLGAEDTAVYYCAREFHPGRYDWHFDLWGRGTLVTVSSSYVLTQPPSVSVAPGQTARITCGGTNISSSSVHWYQQRPGQAPLVVVYDDNYRPSGIPERFSGSNSGNTATLTISRVEAGDEADYYCQVWDDSINAYVFGTGTKVTVL
For B1, in the experiment with H3K4me3 peptide [1], the binding result is on record as “no binding (tested: 100 nM peptide)”.

B2: 36H1 (scFv)
scFv: EVQLVETGGGVVQPGRSLRLSCTASGFTFRDYWMSWVRQAPGKGLEWVADISKEGKYMYYLDAVKGRFTISRDNAKSSLYLQMNSLGAEDTAVYYCARDLNYGAGWHFDLWGRGTLVTVSSSYVLTQPPSVSVAPGQTARITCGGTNIGDISVHWYQQRPGQAPLVVVYDDSDRPSGIPERFSGSNSGNTATLTISRVEAGDEADYYCQVWDDSINAYVFGTGTKVTVL
Consider B2, for which the binding result with H3K4me3 peptide [2] and in the experiment with H3K27me3 peptide [3] was “no binding (tested: 500 nM)” each time.

B3: 36H5 (scFv)
scFv: EVQLVETGGGVVQPGRSLRLSCTASGFTFRDYWVSWVRQAPGKGLEWVADISKEGKYMYYLDAVKGRFTISRDNAKSSLYLQMNSLGAEDTAVYYCARDLNYGAGWHFDLWGRGTLVTVSSSYVLTQPPSVSVAPGQTARITCGGTNIGDISVHWYQQRPGQAPLVVVYDDSDRPSGIPERFSGSNSGNTATLTISRVEAGDEADYYCQVWDDSINAYVFGTGTKVTVL
For B3, the binding result with H3K4me3 peptide [2] and with H3K27me3 peptide [3] was “no binding (tested: 500 nM)” each time.

B4: 4H1 (scFv)
scFv: EVQLVETGGGVVQPGRSLRLSCTASGFTFRDYWMSWVRQAPGKGLEWVADIGEHGSFSYYLDAVKGRFTISRDNAKSSLYLQMNSLGAEDTAVYYCARNFSRGYGWHFDLWGRGTLVTVSSSYVLTQPPSVSVAPGQTARITCGGTNIGDISVHWYQQRPGQAPLVVVYDDSDRPSGIPERFSGSNSGNTATLTISRVEAGDEADYYCQVWDDSINAYVFGTGTKVTVL
For B4, the binding result in the experiment with H4K20me3 peptide [4] and in the experiment with H3K27me3 peptide [5] was “no binding (tested: 100 nM peptide)” each time.

B5: 4H3 (scFv)
scFv: EVQLVETGGGVVQPGRSLRLSCTASGFTFRDNWMSWVRQAPGKGLEWVADIAEDGKAMYYIDAVKGRFTISRDNAKSSLYLQMNSLGAEDTAVYYCARVFSRGYGWHFDLWGRGTLVTVSSSYVLTQPPSVSVAPGQTARITCGGTNIGDISVHWYQQRPGQAPLVVVYDDSDRPSGIPERFSGSNSGNTATLTISRVEAGDEADYYCQVWDDSINAYVFGTGTKVTVL
As for B5, the binding result in the experiment with H4K20me3 peptide [4] is reported as “no binding (tested: 100 nM peptide)”.

B6: 9H3 (scFv)
scFv: EVQLVETGGGVVQPGRSLRLSCTASGFTFRDYWMSWVRQAPGKGLEWVADISQDGESRYYVDAVKGRFTISRDNAKSSLYLQMNSLGAEDTAVYYCARDLLSGYGWHFDLWGRGTLVTVSSSYVLTQPPSVSVAPGQTARITCGGTNIGDISVHWYQQRPGQAPLVVVYDDSDRPSGIPERFSGSNSGNTATLTISRVEAGDEADYYCQVWDDSINAYVFGTGTKVTVL
For B6, the binding result with H4K20me3 peptide [6] is “no binding (tested: 100 nM peptide)”.

B7: 36H2 (scFv)
scFv: EVQLVETGGGVVQPGRSLRLSCTASGFTFRDHWMSWVRQAPGKGLEWVADISKEGKYMYYLDAVKGRFTISRDNAKSSLYLQMNSLGAEDTAVYYCARDLNYGAGWHFDLWGRGTLVTVSSSYVLTQPPSVSVAPGQTARITCGGTNIGDISVHWYQQRPGQAPLVVVYDDSDRPSGIPERFSGSNSGNTATLTISRVEAGDEADYYCQVWDDSINAYVFGTGTKVTVL
On to B7, for which the binding result with H3K4me3 peptide [2] and with H3K27me3 peptide [3] was “no binding (tested: 500 nM)” in each case.

B8: 36H4 (scFv)
scFv: EVQLVETGGGVVQPGRSLRLSCTASGFTFRDHWMSWVRQAPGKGLEWVADISKEGKYMYYLDAVKGRFTISRDNAKSSLYLQMNSLGAEDTAVYYCARDLNYGAGWHFDVWGRGTLVTVSSSYVLTQPPSVSVAPGQTARITCGGTNIGDISVHWYQQRPGQAPLVVVYDDSDRPSGIPERFSGSNSGNTATLTISRVEAGDEADYYCQVWDDSINAYVFGTGTKVTVL
On to B8, for which the binding result with H3K4me3 peptide [2] and with H3K27me3 peptide [3] was “no binding (tested: 500 nM)” throughout.

B9: 20H3 (scFv)
scFv: EVQLVETGGGVVQPGRSLRLSCTASGFTFRDYWMSWVRQAPGKGLEWVADISQEGSWAYYLDAVKGRFTISRDNAKSSLYLQMNSLGAEDTAVYYCARDFPHGSGWHFDLWGRGTLVTVSSSYVLTQPPSVSVAPGQTARITCGGTNIGDISVHWYQQRPGQAPLVVVYDDSDRPSGIPERFSGSNSGNTATLTISRVEAGDEADYYCQVWDDSINAYVFGTGTKVTVL
In the case of B9, the binding result with H3K36me3 peptide [7] and with H3K27me3 peptide [8] was “no binding (tested: 500 nM)” in each case.

B10: 4H2 (scFv)
scFv: EVQLVETGGGVVQPGRSLRLSCTASGFTFRDYWMSWVRQAPGKGLEWVADISKDGSASYYVDAVKGRFTISRDNAKSSLYLQMNSLGAEDTAVYYCARDFVSGYGWHFDLWGRGTLVTVSSSYVLTQPPSVSVAPGQTARITCGGTNIGDISVHWYQQRPGQAPLVVVYDDSDRPSGIPERFSGSNSGNTATLTISRVEAGDEADYYCQVWDDSINAYVFGTGTKVTVL
Turning to B10, the binding result with H4K20me3 peptide [4] and with H3K27me3 peptide [5] was “no binding (tested: 100 nM peptide)” each time.

B11: 20F78 (scFv)
scFv: EVQLVETGGGVVQPGRSLRLSCTASGFTFRDYWMSWVRQAPGKGLEWVADINPDGITRYYIDAVKGRFTISRDNAKSSLYLQMNSLGAEDTAVYYCAREFPNNYGWHFDLWGRGTLVTVSSSYVLTQPPSVSVAPGQTARITCGGTNIDHRVPVHWYQQRPGQAPLVVVYAYSSRPSGIPERFSGSNSGNTATLTISRVEAGDEADYYCQVWDDSINAYVFGTGTKVTVL
With B11, the binding result with H3K4me3 peptide [1] is on record as “no binding (tested: 100 nM peptide)”.

B12: 20F94 (scFv)
scFv: EVQLVETGGGVVQPGRSLRLSCTASGFTFRDYWMSWVRQAPGKGLEWVADINPDGITRYYIDAVKGRFTISRDNAKSSLYLQMNSLGAEDTAVYYCAREFPYINIWHFDLWGRGTLVTVSSSYVLTQPPSVSVAPGQTARITCGGTNIADYTTVHWYQQRPGQAPLVVVYANSARPSGIPERFSGSNSGNTATLTISRVEAGDEADYYCQVWDDSINAYVFGTGTKVTVL
Turning to B12, the binding result with H3K4me3 peptide [1] is listed as “no binding (tested: 100 nM peptide)”.

B13: 27F40 (scFv)
scFv: EVQLVETGGGVVQPGRSLRLSCTASGFTFRDYWMSWVRQAPGKGLEWVADINPDGITRYYIDAVKGRFTISRDNAKSSLYLQMNSLGAEDTAVYYCAREFTNVYGWHFDLWGRGTLVTVSSSYVLTQPPSVSVAPGQTARITCGGTNISNTYVHWYQQRPGQAPLVVVYSSPARPSGIPERFSGSNSGNTATLTISRVEAGDEADYYCQVWDDSINAYVFGTGTKVTVL
As to B13, the binding result with H3K36me3 peptide [9] is “no binding (tested: 100 nM peptide)”.

B14: 27F12 (scFv)
scFv: EVQLVETGGGVVQPGRSLRLSCTASGFTFRDYWMSWVRQAPGKGLEWVADINPDGITRYYIDAVKGRFTISRDNAKSSLYLQMNSLGAEDTAVYYCAREFTNAYGWHFDLWGRGTLVTVSSSYVLTQPPSVSVAPGQTARITCGGTNIISTYVHWYQQRPGQAPLVVVYAHSDRPSGIPERFSGSNSGNTATLTISRVEAGDEADYYCQVWDDSINAYVFGTGTKVTVL
On to B14, for which the binding result in the experiment with H3K36me3 peptide [9] was “no binding (tested: 100 nM peptide)”.

B15: 27F52 (scFv)
scFv: EVQLVETGGGVVQPGRSLRLSCTASGFTFRDYWMSWVRQAPGKGLEWVADINPDGITRYYIDAVKGRFTISRDNAKSSLYLQMNSLGAEDTAVYYCAREFNNVYGWHFDLWGRGTLVTVSSSYVLTQPPSVSVAPGQTARITCGGTNINDTYVHWYQQRPGQAPLVVVYSSDPRPSGIPERFSGSNSGNTATLTISRVEAGDEADYYCQVWDDSINAYVFGTGTKVTVL
Take B15: in the experiment with H3K36me3 peptide [9], the binding result is “no binding (tested: 100 nM peptide)”.

B16: 20F87 (scFv)
scFv: EVQLVETGGGVVQPGRSLRLSCTASGFTFRDYWMSWVRQAPGKGLEWVADINPDGITRYYIDAVKGRFTISRDNAKSSLYLQMNSLGAEDTAVYYCAREFYGSWHFDLWGRGTLVTVSSSYVLTQPPSVSVAPGQTARITCGGTNISHSSGDVHWYQQRPGQAPLVVVYYSYARPSGIPERFSGSNSGNTATLTISRVEAGDEADYYCQVWDDSINAYVFGTGTKVTVL
For the molecule B16, the binding result with H3K4me3 peptide [1] was “no binding (tested: 100 nM peptide)”.
